Target: the molecule itself
Assay: SEC-MALS; in-line SEC (WTC-015S5 column) with MALS detector, 5.5 mg/ml MtAIH solution loaded; monomer to dimer

B1: agmatine iminohydrolase from Medicago truncatula (enzyme)
chain: SNAHGFHMPAEWEPHSQCWIGWPERADNWRDGAVHAQLVFTRVAAAISRFEKVTVCASSAQWENARNQLPDHVRVVEISSNDSWFRDIGPTFVVRRETSKSDDAEHRIAGIDWTFNSWGGLEDGCYCDWSLDSLVKKKILDVERIPRFSHSMVLEGGSIHVDGEGTCITTEECLLNKNRNPHLSKSQIEDELKAYLGVRKVIWLPRGLYGDDDTNGHVDNMCCFVRPGAVLLSWTDDKTDPQYERSEEAYSLFSSVTDANGRKFEVIKLHVPGPLYMTEKEAAGVFQDDGAKPRLPGTRLAASYVNFYIANGAIIAPQFGDKKWDDEAIRVLSKTFPHHEVVGIEGSREIVLSGGNIHCITQQQPAI
notes: Ser-Asn-Ala linker from the vector pMCSG68 that is not cleaved from the expressed protein; agmatine iminohydrolase, Medicago truncatula, UniProt G7JT50, open reading frame MTR_4g112810, encoded protein starting from codon number 11 to the end; theoretical mass of the construct 41.2 kDa; Homodimer by MALS, SAXS and in both crystal forms; In 6NIC the protein holds the small molecule …
- stoichiometry N: 2

From PMC6447857, “Structural Study of Agmatine Iminohydrolase From Medicago truncatula, the Second Enzyme of the Agmatine Route of Putrescine Biosynthesis in Plants” (Frontiers in Plant Science, 2019)
